Results as given in patent US20250152729A1 (CANCER RESEARCH TECHNOLOGY, published 2025).

T1: recombinant human SEMA4A AviHis10, biotinylated (human, UniProt Q9H3S1 33-683, biotin on the Avi tag (BirA))
T1 construct: The text says amino acids 33-683 of Q9H3S1 with C-terminal Avi tag and His10 tag; also called avi-SEMA4A-His10
T1 sequence: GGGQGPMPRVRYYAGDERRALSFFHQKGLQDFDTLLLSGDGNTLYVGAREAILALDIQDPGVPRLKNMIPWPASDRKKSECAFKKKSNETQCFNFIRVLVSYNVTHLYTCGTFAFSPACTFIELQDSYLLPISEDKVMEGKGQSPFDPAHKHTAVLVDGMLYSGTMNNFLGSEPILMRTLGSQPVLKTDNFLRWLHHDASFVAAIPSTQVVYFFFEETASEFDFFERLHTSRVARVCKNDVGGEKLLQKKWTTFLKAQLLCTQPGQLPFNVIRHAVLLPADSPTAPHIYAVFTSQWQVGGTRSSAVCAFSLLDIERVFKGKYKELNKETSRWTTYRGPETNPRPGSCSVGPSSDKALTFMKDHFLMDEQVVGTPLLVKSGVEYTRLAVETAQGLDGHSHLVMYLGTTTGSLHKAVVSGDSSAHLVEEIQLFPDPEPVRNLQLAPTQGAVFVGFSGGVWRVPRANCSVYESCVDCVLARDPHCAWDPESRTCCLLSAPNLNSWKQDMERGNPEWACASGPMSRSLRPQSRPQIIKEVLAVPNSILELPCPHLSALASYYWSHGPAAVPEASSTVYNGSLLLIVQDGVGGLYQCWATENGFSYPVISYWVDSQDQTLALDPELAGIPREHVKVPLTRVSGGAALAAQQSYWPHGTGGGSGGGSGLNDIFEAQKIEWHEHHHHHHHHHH

T2: recombinant cynomolgus SEMA4A AviHis10, biotinylated (cynomolgus, UniProt Q9H3S1 32-677 (human entry), biotin on the Avi tag (BirA))
T2 construct: The text says amino acids 32-679 of G7NV79 with C-terminal Avi tag and His10 tag; also called Cyno SEMA4A AviHis10; cynoSEMA4A
T2 chain: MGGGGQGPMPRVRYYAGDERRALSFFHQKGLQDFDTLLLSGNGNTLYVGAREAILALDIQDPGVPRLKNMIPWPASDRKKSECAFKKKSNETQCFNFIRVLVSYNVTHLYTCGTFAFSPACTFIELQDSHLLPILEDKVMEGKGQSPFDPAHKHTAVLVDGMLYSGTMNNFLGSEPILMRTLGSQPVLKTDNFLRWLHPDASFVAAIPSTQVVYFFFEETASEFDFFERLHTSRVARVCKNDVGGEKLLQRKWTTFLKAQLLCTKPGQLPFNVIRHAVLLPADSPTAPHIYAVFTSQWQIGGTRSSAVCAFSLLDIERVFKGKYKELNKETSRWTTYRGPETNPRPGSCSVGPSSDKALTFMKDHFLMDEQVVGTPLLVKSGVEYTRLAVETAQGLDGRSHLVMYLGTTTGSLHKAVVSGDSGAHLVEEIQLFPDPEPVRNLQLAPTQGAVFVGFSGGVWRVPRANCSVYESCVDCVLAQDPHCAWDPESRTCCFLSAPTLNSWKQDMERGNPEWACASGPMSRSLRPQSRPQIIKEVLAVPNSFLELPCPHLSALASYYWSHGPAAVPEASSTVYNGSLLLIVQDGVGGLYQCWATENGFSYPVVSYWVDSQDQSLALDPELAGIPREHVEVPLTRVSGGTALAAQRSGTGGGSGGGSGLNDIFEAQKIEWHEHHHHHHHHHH

B1: C0120903 human Alya IgG1 (antibody, V domains shown)
VH: EVQLVQSGAEVKKPGSSMKVSCKASGGTFNSYTINWVRQAPGQGLEWVGGFIPIFGTADYAQKFHGRVAITADESMSTAYMELSSLRSEDTAVYYCARAPLGSEPFDYWGQGTMVTVSS
VL: SYVLTQPPSVSVAPGQTARITCGGNNIGSKSVHWYQQKPGQAPVLVVYDDSDRPSGIPERFSGSNSGNTATLTISRVEAGDEADYYCQVWDSSSDHLVFGGGTKLTVL
notes: Fully human, phage display derived; human IgG1 Alya constant (239iCys, S442C, EU); unconjugated
B2: C0120905 human Alya IgG1 (antibody, V domains shown)
VH: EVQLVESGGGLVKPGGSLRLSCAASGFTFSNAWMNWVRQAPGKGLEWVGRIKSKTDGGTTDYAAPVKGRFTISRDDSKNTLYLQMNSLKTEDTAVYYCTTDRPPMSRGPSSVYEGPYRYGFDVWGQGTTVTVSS
VL: NFMLTQPHSVSESPGKTVTISCTGSGGNIVDNFVQWHQQRPGSAPRTVIYEDDQRPSGVPDRFSASVDSSSNSGTLSISGLKTEDEADYYCQSYDGANRWVFGGGTKLTVL
notes: as for B1
B3: 5Hg1-5Lg1 human Alya IgG1 (antibody, V domains shown)
VH: QVQLVQSGAEVKKPGASVKVSCKASGYTFTDYWMHWVRQAPGQGLEWMGAIDTSDSYTSYNQKFKGRVTMTRDTSTSTVYMELSSLRSEDTAVYYCARDYGNFYYYAMDYWGQGTLVTVSS
VL: QAVVTQEPSLTVSPGGTVTLTCRSSTGAVTTSNYANWFQQKPGQAPRTLIYGTNNRAPWTPARFSGSLLGGKAALTLSGAQPEDEAEYYCALWYSNHWVFGGGTKLTVL
notes: Humanised 5E3; human IgG1 Alya constant (239iCys, S442C, EU), lambda light chain; purified, unconjugated
B4: 5Hg2-5Lg2 human Alya IgG1 (antibody, V domains shown)
VH: QVQLVQSGAEVKKPGASVKVSCKASGYTFTDYWMHWVRQAPGQRLEWMGAIDTSDSYTSYNQKFKGRVTITRDTSASTAYMELSSLRSEDTAVYYCARDYGNFYYYAMDYWGQGTLVTVSS
VL: QAVVTQEPSLTVSPGGTVTLTCRSSTGAVTTSNYANWFQQKPGQAPRTLIYGTNNRAPWTPARFSGSLLGGKAALTLLGAQPEDEAEYYCALWYSNHWVFGGGTKLTVL
notes: as for B3
B5: C0120906 human Alya IgG1 (antibody, V domains shown)
VH: EVQLVQSGPEVKKPGASVKISCKASGYKLNDPGVHGVSWVRQAPGQGLEWMGWISTLNGDTRYAQKFQGRVTMATDSSTSTIYMDLRSLKSDDTALYYCARDDYTAIFDFWGRGTLVTVSS
VL: QSVLTQPPSVSVAPGQTASITCGGSNIGSQSVHWYQQKPGQAPVLVVYDDSDRPSGIPERFSGSKSGNTASLILSRVEAGDEADYYCQVWDSSTDHHVFGTGTKVTVL
notes: as for B1
B6: C0120917 human Alya IgG1 (antibody, V domains shown)
VH: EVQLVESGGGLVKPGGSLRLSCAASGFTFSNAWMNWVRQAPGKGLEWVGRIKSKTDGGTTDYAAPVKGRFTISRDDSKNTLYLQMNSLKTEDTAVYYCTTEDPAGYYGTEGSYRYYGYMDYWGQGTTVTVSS
VL: NFMLTQPHSVSESPGKTVTISCTASGDTLDNKYVNWYQVRPGSAPATLIFHYEERDSGVPDRFSGSFDASSNSASLTISGLQTADEADYFCQSYDSKRDNLVVFGGGTKVTVL
notes: as for B1
B7: mouse 5E3 expressed as human IgG1 Alya (antibody, V domains shown)
VH: QVQLQQPGAELVMPGASVKMSCKASGYTFTDYWMHWVKQRPGQGLEWIGAIDTSDSYTSYNQKFKGKATLTVDESSSTAYMQLSSLTSEDSAVYYCARDYGNFYYYAMDYWGQGTSVTVSS
VL: QAVVTQESALTTSPGETVTLTCRSSTGAVTTSNYANWVQEKPDHLFTGLIGGTNNRAPGVPARFSGSLIGDKAALTITGAQTEDEAIYFCALWYSNHWVFGGGTKLTVL
notes: Mouse variable domains on human IgG1 Alya constant (pEU1.22; 239iCys and S442C, EU numbering); purified, unconjugated; also called 5E3 IgG1 Alya
B8: C0120918 human Alya IgG1 (antibody, V domains shown)
VH: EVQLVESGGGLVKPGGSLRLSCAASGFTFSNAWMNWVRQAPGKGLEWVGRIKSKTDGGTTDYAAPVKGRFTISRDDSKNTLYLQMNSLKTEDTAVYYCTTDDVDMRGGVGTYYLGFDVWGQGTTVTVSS
VL: SYELTQPPSVSVSPGQTARITCSGDALPKQYAYWYQQKPGQAPVLVIYKDSERPSGIPERFSGSSSGTTVTLTISGVQAEDEADYYCQSADSSGTWVFGGGTKVTVL
notes: as for B1
B9: C0120914 human Alya IgG1 (antibody, V domains shown)
VH: QVQLQESGPGLVKPSETLSLTCTVSGGSVSSGRYDWSWIRQPPGKGLEWIGHIYYTGITDYNPSLRSRVTISADKPKNQFSLKLNSVTAADTAVYYCARGPFFDPWGQGTMVTVSS
VL: QSVLTQPPSVSVAPGQTASLTCGANNIGSKSVQWYQQKPGQAPVLVVYDGSDRPSGIPDRFSGSSSENTATLTISRVEAGDEADYYCQLWDSVTDRPVFGGGTKVTVL
notes: as for B1

Tests used:
[1] = target: T1, recombinant human SEMA4A AviHis10, …; experiment: BLI (OctetRED), biotinylated SEMA4A on streptavidin tip, IgG as analyte, 1:1 model; KD(observed) IgG
Procedure: (§1) An Octet Kinetics buffer (PBS containing 0.01% (v/v) BSA and 0.002% (v/v) Tween20) is typically used as the diluent buffer for the analyte samples and as the flow buffer during the dissociation phase. The experimental data is recorded as shift in interference pattern (nm) over time, which is directly proportional to the optical thickness at the biosensor tip, which in turn is an approximate measure of the mass of analyte bound. The proprietary Octet Data Analysis software package can then be used to process data and fit binding models to the data sets. Returned association (ka, M-1 s-1) and dissociation (kd, s-1) rate constants allow calculation of dissociation (KD, M) affinity constants.
(§2) The affinity of binding between the analytes (humanised and phage display derived IgGs as human Alya IgG1s and Fabs) and human SEMA4A and cynomolgus SEMA4A, was estimated using assays in which the biotinylated SEMA4A antigen was captured on a streptavidin sensor tip. A fresh sensor tip was used for each measurement and no regeneration was used. A series of dilutions of the lead Fabs and human Alya IgG1s (3.25-240 nM) were individually placed in contact with the ligand surface for a sufficient amount of time to observe sensorgrams that could be fitted to an appropriate binding model with confidence (typically 5 minutes), followed by an appropriate length of dissociation time (typically 10 minutes). Blank reference (0 nM analyte) data were subtracted from each dataset to reduce the impact of any buffer artefacts or non-specific binding effects. A 1:1 binding model was then fitted simultaneously to the data from each analyte titration using the Octet Evaluation software (Table 8).

[2] = target: T2, recombinant cynomolgus SEMA4A AviHis10, …; experiment: as above
Procedure: as §1, §2

[3] = target: T1, recombinant human SEMA4A AviHis10, …; experiment: BLI (OctetRED), biotinylated SEMA4A on streptavidin tip, IgG as analyte, 1:1 model; KD(observed) IgG; human SEMA4A; IgG, not Fab
Procedure: as §1
as §2, with “Blank reference (0 nM analyte) data were subtracted from each dataset to reduce the impact of any buffer artefacts or non-specific binding effects. A 1:1 binding model was then fitted simultaneously to the data from each analyte titration using the Octet Evaluation software (Table 8).” left out

Row | Binder | Kd [1] | Kd [2] | Kd [3]
1 | B1 | 6 nM | 20 nM | 
2 | B2 | 10 nM | 9 nM | 
3 | B3 | ≤ 2 nM |  | 
4 | B4 | ≤ 2 nM |  | 
5 | B5 | 11 nM | 2 nM | 
6 | B6 | 14 nM | 6 nM | 
7 | B7 |  | ≤ 1 nM | ≤ 1 nM
8 | B8 | 9 nM | 9 nM | 
9 | B9 | 21 nM | 97 nM | 
